According to publication PMC11515964:

Biological target: T1, Full-length human GPR1, wild type, N-terminal FLAG tag (pcDNA3.1(+)) (human) (UniProt P46091)
T1 sequence: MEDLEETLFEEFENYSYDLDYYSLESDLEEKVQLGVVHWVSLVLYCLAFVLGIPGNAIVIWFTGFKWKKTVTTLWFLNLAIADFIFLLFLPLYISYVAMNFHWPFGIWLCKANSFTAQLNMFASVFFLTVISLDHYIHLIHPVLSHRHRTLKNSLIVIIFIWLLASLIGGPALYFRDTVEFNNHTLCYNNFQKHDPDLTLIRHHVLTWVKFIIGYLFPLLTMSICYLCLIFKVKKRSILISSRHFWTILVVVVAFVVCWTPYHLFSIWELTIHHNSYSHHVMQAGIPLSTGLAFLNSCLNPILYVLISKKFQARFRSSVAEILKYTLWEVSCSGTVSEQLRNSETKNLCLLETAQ

B1: Full-length chemerin (abcam, ab256228) (ligand)
chain: ELTEAQRRGLQVALEEFHKHPPVQWAFQETSVESAVDTPFPAGIFVRLEFKLQQTSCRKRDWKKPECKVRPNGRKRKCLACIKLGSEDKVLGRLVHCPIETQVLREAEEHQETQCLRVQRAGEDPHSFYFPGQFAFS
Question: With B1 as the binder, how does the EC50 of cAMP inhibition (HeLa) and NanoBiT G protein dissociation (HEK293T) read?
Answer: Its EC50 of cAMP inhibition (HeLa) and NanoBiT G protein dissociation (HEK293T) is 0.1 nM.
